Test results as given in patent US20210317225A1 (Genmab, published 2021).
One block for each binder: values may come before it.

What was measured:
[1] = molecular target: T1, Human CD137 shuffle 1 (amino acids 162-186 replaced by wild boar CD137) (human, amino acids 162-186 from wild …, UniProt Q07011 24-255); experiment: flow cytometry on transfected HEK293T-17 cells, 1 µg/mL antibody
T1 construct: also called shuffle construct 1
T1 chain: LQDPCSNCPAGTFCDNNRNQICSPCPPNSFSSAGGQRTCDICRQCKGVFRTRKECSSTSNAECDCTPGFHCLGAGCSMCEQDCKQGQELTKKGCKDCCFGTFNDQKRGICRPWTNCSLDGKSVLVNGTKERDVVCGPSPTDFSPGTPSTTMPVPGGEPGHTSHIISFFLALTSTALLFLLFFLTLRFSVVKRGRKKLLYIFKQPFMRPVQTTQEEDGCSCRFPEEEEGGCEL
Description: (§1) 3×10⁶ HEK293T-17 cells were seeded in T75 culture flasks (Greiner Bio-One, cat. no. 658175) in 20 mL RPMI 1640 GlutaMAX medium containing 10% FCS (Biochrom, cat. no. S 0115). After O/N incubation, cells were transiently […] with expression vectors encoding the shuffle constructs or the wild boar, African elephant or human CD137 downstream of a constitutively active human elongation factor-1 alpha (EF-1 alpha) promotor using TransIT®-LT1 Transfection Reagent, Mirus Bio (VWR International, cat. no. 731-0029), according to the manufacturer's instructions. The next day, cells were harvested using 1.5 mL Accutase (Sigma Aldrich, cat. no. A6964) (incubation at 37° C. for 5 min.) and flow cytometry was performed, essentially as described in Example 4, to measure surface expression of the shuffle constructs and the human, African elephant and wild boar CD137 and to measure binding of the antibody clones to the different shuffle constructs. To measure cell surface expression of the constructs, transduced cells were incubated with 1 μg/mL goat polyclonal anti-human CD137 (R&D Systems, cat. no. AF838) in FACS buffer (D-PBS supplemented with 5 mM EDTA [Sigma Aldrich, cat. no. 03690] and 5% (v/v) fetal bovine serum [FBS, Biochrom, cat. no. S 0115]) (4° C., 20 min.), followed by incubation with APC-labeled anti-goat IgG (H+L) (R&D Systems, cat. no. F0108) (4° C., 20 min.). Binding of the different CD137 antibody clones to cells expressing the shuffle constructs was measured by incubation of the transduced cells with 1 μg/mL of the antibody clones, followed by APC-labeled AffiniPure F(ab′)2 Fragment (1:50 final dilution; Jackson, cat. no. 109-136-127).

[2] = molecular target: T2, Human CD137 shuffle 4 (amino acids 89-114 replaced by wild boar CD137) (human, amino acids 89-114 from wild boar, UniProt Q07011 24-255); experiment: as above
T2 construct: also called shuffle construct 4
T2 chain: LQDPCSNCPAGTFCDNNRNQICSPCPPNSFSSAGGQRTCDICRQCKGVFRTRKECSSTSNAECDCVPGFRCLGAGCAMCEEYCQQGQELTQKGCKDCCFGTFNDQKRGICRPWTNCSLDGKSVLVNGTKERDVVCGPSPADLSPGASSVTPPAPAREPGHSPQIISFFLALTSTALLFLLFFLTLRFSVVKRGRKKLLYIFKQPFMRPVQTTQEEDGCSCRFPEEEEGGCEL
Description: as §1

[3] = molecular target: T3, Human CD137 shuffle 5 (amino acids 48-88 replaced by African elephant CD137) (human, amino acids 48-88 from African …, UniProt Q07011 24-255); experiment: as above
T3 construct: also called shuffle construct 5
T3 chain: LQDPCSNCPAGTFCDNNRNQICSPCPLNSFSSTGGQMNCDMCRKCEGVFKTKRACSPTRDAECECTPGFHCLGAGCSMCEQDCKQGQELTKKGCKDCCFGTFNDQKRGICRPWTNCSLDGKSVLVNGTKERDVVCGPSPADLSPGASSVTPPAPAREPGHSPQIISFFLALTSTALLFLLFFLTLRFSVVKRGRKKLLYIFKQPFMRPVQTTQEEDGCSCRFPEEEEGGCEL
Description: as §1

[4] = molecular target: T4, Human CD137 shuffle 2 (amino acids 139-161 replaced by wild boar CD137) (human, amino acids 139-161 from wild …, UniProt Q07011 24-255); experiment: as above
T4 construct: also called shuffle construct 2
T4 chain: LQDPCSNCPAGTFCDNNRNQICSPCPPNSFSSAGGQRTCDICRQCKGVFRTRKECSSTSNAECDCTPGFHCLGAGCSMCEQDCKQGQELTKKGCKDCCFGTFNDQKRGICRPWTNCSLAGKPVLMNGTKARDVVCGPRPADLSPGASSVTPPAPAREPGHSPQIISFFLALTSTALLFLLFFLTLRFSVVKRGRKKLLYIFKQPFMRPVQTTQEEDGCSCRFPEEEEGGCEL
Description: as §1

[5] = molecular target: T5, Human CD137 shuffle 3 (amino acids 115-138 replaced by wild boar CD137) (human, amino acids 115-138 from wild …, UniProt Q07011 24-255); experiment: as above
T5 construct: also called shuffle construct 3
T5 chain: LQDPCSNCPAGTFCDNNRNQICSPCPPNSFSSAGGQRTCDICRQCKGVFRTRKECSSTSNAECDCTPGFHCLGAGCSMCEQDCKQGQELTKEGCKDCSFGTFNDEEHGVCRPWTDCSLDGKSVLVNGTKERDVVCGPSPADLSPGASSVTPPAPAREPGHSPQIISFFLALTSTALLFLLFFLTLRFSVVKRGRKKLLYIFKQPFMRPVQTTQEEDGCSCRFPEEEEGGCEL
Description: as §1

Human CD137 (TNR9_Human) [6] = molecular target: T6, Human CD137 (TNR9_Human) (human, UniProt Q07011 24-255); experiment: flow cytometry, HEK293-T17 cells transiently transfected with human CD137, antibody at 1 µg/mL, APC-labeled F(ab')2 secondary
T6 construct: Full-length human CD137 expressed on HEK293T-17, NF-kB/293/GFP-Luc or K562 cells, or native on T cells; also called hCD137 wt; 4-1BB
Description: (§2) FIG. 4: Binding of CD137 antibody clones to CD137 shuffle constructs expressed on HEK293-T17 cells. HEK293-T17 cells were transfected with the CD137 shuffle constructs, and with human CD137 (hCD137 wt), African elephant of wild boar CD137, as indicated. Binding of the different CD137 antibody clones to these constructs expressed on HEK293-T17 cells was measured by flow cytometry. Staining with polyclonal anti-CD137 antibody is shown as a control.
as §1

Human CD137 (TNR9_Human) [7] = molecular target: T6, Human CD137 (TNR9_Human); experiment: flow cytometry, HEK293-T17 cells transiently transfected with human CD137, antibody at 1 µg/mL, APC-labeled F(ab')2 secondary [cont.]
Description: as §2, §1

[8] = molecular target: T2, Human CD137 shuffle 4 (amino acids …); experiment: flow cytometry on transfected HEK293T-17 cells
Description: as §1

Human CD137 (TNR9_Human) [9] = molecular target: T6, Human CD137 (TNR9_Human); experiment: cell-based or functional assay
Human CD40 = Human CD40 (human, UniProt P25942 21-277); experiment: cell-based or functional assay
Human CD40, sequence (P25942 21-277): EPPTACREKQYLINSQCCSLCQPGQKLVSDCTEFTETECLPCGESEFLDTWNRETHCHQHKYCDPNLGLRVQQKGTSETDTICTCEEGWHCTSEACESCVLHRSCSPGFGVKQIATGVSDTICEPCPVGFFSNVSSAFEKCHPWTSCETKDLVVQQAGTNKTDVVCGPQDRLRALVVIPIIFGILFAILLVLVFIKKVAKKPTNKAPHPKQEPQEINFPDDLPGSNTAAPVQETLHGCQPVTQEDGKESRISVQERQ

binding result (Human CD137 (TNR9_Human) [7]): binds
binding result [1]: binds
binding result [2]: binds
binding result [3]: binds
binding result [4]: binds
binding result [5]: binds
B2: CD137 antibody clone 012 (rabbit) (antibody, human IgG1, kappa, V domains shown)
VH: QSVEESGGRLVTPGTPLTLTCTVSGFSLSDYYMTWVRQAPGKGLEYIGIMSGSGSTYYASWAKGRFTISKTSSTTLELKITSPTTEDTAIYFCARDGDYAGWGYATGAFDPWGPGTLVTVSS
VL: AAVLTQTPSPVSAAVGGTVTISCQASQSVVGNSLLSWFQKKPGQPPKLLIYSASSLASGVPSRFKGSGSGTQFTLTISDLESDDAATYYCTGRYNSDTDTFVFGGGTEVVVKR
notes: also called Clone 12; CD137 clone 012

binding result [8]: no binding (tested: 1 µg/mL)
binding result (Human CD137 (TNR9_Human) [7]): binds
binding result [1]: binds
binding result [3]: binds
binding result [4]: binds
binding result [5]: binds
B3: CD137 antibody clone 007 (rabbit) (antibody, human IgG1, kappa, V domains shown)
VH: QSLEESGGRLVTPGTPLTLTCTASGFSLSSYDVSWVRQAPGKGLEYIGFIGSDGSAHYATWVKGRFTISKTSTTVDLKITSPTTEDTATYFCARDWNDYWAHDLWGPGTLVTVSS
VL: AQVLTQTTSPVSAAVGGTVTINCQASQIVTSKSALSWYQQKPGQPPRLLIYKASTLASGVPSRFSGSGSGTQFTLTISDLESDDAATYYCAGGYYNSGDLNPFGGGTEVVVKR
notes: also called Clone 7; CD137 clone 007

binding result [8]: no binding (tested: 1 µg/mL)
binding result [1]: binds
binding result [3]: binds
binding result [4]: binds
binding result [5]: binds
binding result (Human CD137 (TNR9_Human) [6]): binds
B4: CD137 antibody clone 003 (rabbit) (antibody, human IgG1, kappa, V domains shown)
VH: QSVEESGGRLVTPGTPLTLTCTASGFTISSYHMIWVRQAPGEGLEWIGDIYGGTATTDYASWAKGRFTISKTSTTVDLKMTSLTTEDTATYFCARARYSGGSYANYVFNLWGQGTLVTVSS
VL: DIVMTQTPASVEAAVGGTVTIKCQASQSISSYLAWYQQKPGQPPKLLIYRTSTLESGVPSRFKGSGSGTEFTLTISDLESADAATYYCQGYDWSSSNRYDNTFGGGTEVVVKR
notes: also called Clone 3; CD137 clone 003

The next lines start with the binder.

B1: CD137 antibody clone 001 (rabbit) (antibody, human IgG1, kappa, V domains shown)
VH: QSVEESGGRLVTPGTPLTLTCTVSGFSLSSYAVSWVRQAPGKGLEWIGVIWNNGATHYATWAKGRFTISKASTTVDLKVTSPTTEDTATYFCARSANDAWSTYSDLWGQGTLVTVSS
VL: DIVMTQTPASVEAAVGGTVTIKCQASQTITNYLSWYQQKPGQPPKLLIYKASTLTSGVSSRFKGSGSGTEFTLTISDLESDDAATYYCQNYYYGSSSGYGFVFGGGTEVVVKR
notes: also called Clone 1; CD137 clone 001
binding result [1]: binds
binding result [2]: binds
binding result [3]: binds
binding result [4]: binds
binding result [5]: binds
binding result (Human CD137 (TNR9_Human) [6]): binds

B5: CD40-001-FEALxCD137-004-FEAR (bispecific antibody, human IgG1, kappa)
heavy 1: EVQLQQSGPDLVKPGASVKISCKTSGYTFTEYIMHWVKQSHGKSLEWIGGIIPNNGGTSYNQKFKDKATMTVDKSSSTGYMELRSLTSEDSAVYYCTRREVYGRNYYALDYWGQGTLVTVSSASTKGPSVFPLAPSSKSTSGGTAALGCLVKDYFPEPVTVSWNSGALTSGVHTFPAVLQSSGLYSLSSVVTVPSSSLGTQTYICNVNHKPSNTKVDKRVEPKSCDKTHTCPPCPAPEFEGGPSVFLFPPKPKDTLMISRTPEVTCVVVAVSHEDPEVKFNWYVDGVEVHNAKTKPREEQYNSTYRVVSVLTVLHQDWLNGKEYKCKVSNKALPAPIEKTISKAKGQPREPQVYTLPPSREEMTKNQVSLTCLVKGFYPSDIAVEWESNGQPENNYKTTPPVLDSDGSFLLYSKLTVDKSRWQQGNVFSCSVMHEALHNHYTQKSLSLSPGK
light 1: DIQMTQTTSSLSASLGDRVTITCSASQGINNYLNWYQQKPDGTVKLLIYYTSSLHSGVPSRFSGSGSGTDYSLTISNLEPEDIATYYCQQYSNLPYTFGGGTKLEIKRTVAAPSVFIFPPSDEQLKSGTASVVCLLNNFYPREAKVQWKVDNALQSGNSQESVTEQDSKDSTYSLSSTLTLSKADYEKHKVYACEVTHQGLSSPVTKSFNRGEC
heavy 2: QSLEESGGRLVTPGTPLTLTCTASGFSLSRYDMSWVRQAPGKGLEYIGVISSSGGTNYANWAKGRFTISKTSTTVDLKITSPTTEDTATYFCAREGDYWDFNLWGPGTLVTVSSASTKGPSVFPLAPSSKSTSGGTAALGCLVKDYFPEPVTVSWNSGALTSGVHTFPAVLQSSGLYSLSSVVTVPSSSLGTQTYICNVNHKPSNTKVDKRVEPKSCDKTHTCPPCPAPEFEGGPSVFLFPPKPKDTLMISRTPEVTCVVVAVSHEDPEVKFNWYVDGVEVHNAKTKPREEQYNSTYRVVSVLTVLHQDWLNGKEYKCKVSNKALPAPIEKTISKAKGQPREPQVYTLPPSREEMTKNQVSLTCLVKGFYPSDIAVEWESNGQPENNYKTTPPVLDSDGSFFLYSRLTVDKSRWQQGNVFSCSVMHEALHNHYTQKSLSLSPGK
light 2: AQVLTQTPSSVSAAVGGTVTINCQASQSISNLLAWYQQKPGQPPKLLIYGASTLASGVPSRFSGSGSGTEFTLTISDLESDDAATYYCAGGFPGLDTVAAFGGGTEAVVTRTVAAPSVFIFPPSDEQLKSGTASVVCLLNNFYPREAKVQWKVDNALQSGNSQESVTEQDSKDSTYSLSSTLTLSKADYEKHKVYACEVTHQGLSSPVTKSFNRGEC
luciferase activity (RLU) of NF-KB/293/GFP-Luc cells transduced with CD137, incubated with K562_CD40 (Human CD137 (TNR9_Human) [9]): ~100 ng/mL
luciferase activity (RLU) of NF-KB/293/GFP-Luc cells transduced with CD40, incubated with K562_CD137 (Human CD40): ~100 ng/mL
